Legend:
[1] = molecular target: SEL1L S658P (mouse knock-in) (mouse (endogenous in MEFs and P0 liver)) (UniProt Q9Z2G6); test: co-IP; IP of endogenous SEL1L from P0 mouse liver lysates (WT, Sel1L^S658P, Sel1L^L709P); same lysis buffer; DERL2 eluted with 0.1 M glycine pH 2.5; immunoblot with quantification
[2] = molecular target: SEL1L S658P (mouse knock-in) (mouse (endogenous in MEFs and P0 liver)) (UniProt Q9Z2G6); test: co-IP; IP of endogenous SEL1L (1 ug anti-SEL1L, Protein A agarose, overnight 4 C) from MEF lysates (WT, Sel1L^S658P, Sel1L^L709P, Sel1L^P699T, Sel1L^ERCre KO); 150 mM NaCl, 25 mM Tris-HCl pH 7.5, 0.2% NP-40, 0.1% Triton X-100; immunoblot, prey band normalised to bait
[3] = molecular target: HRD1 (mouse) (mouse (endogenous in MEFs and P0 liver)) (UniProt Q9DBY1); test: co-IP; reciprocal IP of endogenous HRD1 (anti-HRD1, Protein A agarose) from MEF lysates; same lysis buffer; immunoblot

Work on “HRD1 (mouse) (from UniProt Q9DBY1 1-612) (enzyme)” yielded a reduction of HRD1 association against WT [1] of 80% and a reduction of HRD1 binding against WT [2] of 60%.

In the case of “SEL1L S658P (mouse knock-in) (from UniProt Q9Z2G6 22-790) (natural protein)”, the reduction of SEL1L–HRD1 binding against WT [3] is reported as 60%.

B1: DERL2 (mouse) (natural protein)
chain: MAYQSLRLEYLQIPPVSRAYTTACVLTTAAVQLELITPFQLYFNPELIFKHFQIWRLITNFLFFGPVGFNFLFNMIFLYRYCRMLEEGSFRGRTADFVFMFLFGGFLMTLFGLFVSLVFLGQAFTIMLVYVWSRRNPYVRMNFFGLLNFQAPFLPWVLMGFSLLLGNSIIVDLLGIAVGHIYFFLEDIFPNQPGGIRILKTPSILRTIFDTPDEDPNYNPLPEERPGGFAWGEGQRLGG
Molecule B1 has a decrease of DERL2 interaction against WT [1] of 60%.

— article PMC12891039
